5 molecules from patent publication US20150126710A1 (APOGENIX, published 2015) can be followed below.

In experiment [1] the target is T1, TRAIL-Receptor 1-Fc (UniProt O00220 109-239, limits assumed).
T1 construct: Bought from R&D Systems; also called TRAILR1; not shown: Fc part of the bought fusion protein
Briefly: Streptactin-ELISA, LIGHT-ASPD immobilized via Strep-tag II. As to the method:
(§1) To determine the binding of receptors to constructed ligands, streptactin-coated 96-well microplates were used. Therefore, supernatants from transiently transfected HEK293 cells, mouse sera or purified proteins were immobilized on streptactin-plates (IBA GmbH) for 1-3 hours in PBS. Samples were diluted in ELISA binding/blocking buffer (PBS, 0.1% Tween-20, 20% SuperBlock T20-PBS (Pierce)). Plates were washed with PBS+0.1% Tween-20 and incubated with mouse-anti-TRAIL antibody (Pharmingen, clone RIK-2), TRAIL-Receptor 1-Fc (R&D Systems), TRAIL-Receptor 2-Fc (R&D Systems), TACI-Fc (R&D Systems) or HVEM-Fc (R&D Systems) for one hour at room temperature. Plates were again washed and Fc-proteins were detected with anti-human- or anti-mouse-Fc-specific peroxidase-conjugated antibodies (Sigma). Colour reaction was done by addition of 100 μl per well of TMB substrate (Kem-En-Tec Diagnostics) and the absorbance at 450 nm and 630 nm was determined with an ELISA reader after addition of 25 μl of 25% H₂SO₄ as stop-solution. Values were calculated as 450 nm-630 nm with MS Excel.
Varying concentrations (0-10 microgram/ml) of affinity and SEC purified, trimeric LIGHT-ASPD were used for immobilized via the Strep-tag II on Streptactin-coated microplates. LIGHT-ASPD was then detected in a ELISA set-up using 100 ng/ml of Fc-fusion proteins of the receptors HVEM and TRAIL-Receptor 1, respectively. […]
(In general: ELISA stands for enzyme-linked immunosorbent assay.)

The target in experiment [2] is T1, TRAIL-Receptor 1-Fc. Briefly: Streptactin-ELISA, supernatant immobilized, constant concentration of TRAIL-Receptor 1-Fc (FIG. 14A). As to the method: as §1
The selectivity of TRAIL-Receptor 1 or TRAIL-Receptor 2 towards fusion proteins of SPD/ccSPD and TRAIL, TRAILR1 mut and TRAILR2mut was shown by Streptactin-ELISA. Therefore, TRAIL-SPD-fusion proteins in supernatants from transiently transfected HEK293 cells were immobilized on Streptactin coated microplates. Cell supernatant from untransfected cells served as negative control. Specifically bound proteins were detected with constant (A, B) or varying (C, D) concentrations of either TRAIL-Receptor 1-Fc or TRAIL-Receptor 2-Fc. As shown in (A), the ligand TRAILR1 mut fused to SPD variants is deteced by TRAIL-Receptor 1, whereas the ligand TRAILR2mut is not. As shown in (B), the ligand TRAILR2mut is preferentially detected by TRAIL-Receptor 2, whereas TRAILR1 mut- and TRAIL wild-type constructs are equally well detected. As shown in C, TRAIL-Receptor 1-Fc bound to TRAIL-R1mut-ASPD and TRAIL-ASPD equally well over the whole receptor titration range, whereas TRAIL-R2mut-ASPD is not detected. As shown in D, TRAIL-Receptor 2-Fc bound to TRAIL-R2mut-ASPD and TRAIL-ASPD equally well over the receptor titration range analyzed, whereas the signal for TRAIL-R1mut-ASPD decreased rapidely with decreasing concentrations of receptor.

T1 sequence (O00220 109-239 limits assumed): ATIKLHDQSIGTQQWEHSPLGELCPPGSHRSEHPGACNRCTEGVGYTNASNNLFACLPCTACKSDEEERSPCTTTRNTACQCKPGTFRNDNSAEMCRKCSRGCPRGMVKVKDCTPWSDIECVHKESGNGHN

B1: LIGHT-ASPD (ligand)
chain: EVNPAAHLTGANSSLTGSGGPLLWETQLGLAFLRGLSYHDGALVVTKAGYYYIYSKVQLGGVGCPLGLASTITHGLYKRTPRYPEELELLVSQQSPCGRATSSSRVWWDSSFLGGVVHLEAGEEVVVRVLDERLVRLRDGTRSYFGAFMVGSSGSSGSSGSGLPDVASLRQQVEALQGQVQHLQAAFSQYKKVELFPNGQSVGEKIFKTAGFVKPFTEAQLLCTQAGGQLASPRSAAENAALQQLVVAKNEAAFLSMTDSKTEGKFTYPTGESLVYSNWAPGEPNDDGGSEDCVEIFTNGKWNDRACGEKRLVVCEFGGSPSSSSSSAWSHPQFEK
notes: Human LIGHT-RBD (Glu91-Val240), A-linker, neck + CRD of human SP-D, linker element and Strep-tag II; Signal peptide 1-20 left out; Trimer by SEC, glycosylated; also called Sp-LIGHT-ASPD
In the case of B1, in experiment [1], the binding result was “no binding”.

B2: TRAILR2mut-D-SPD (ligand)
chain: QRVAAHITGTRGRSNTLSSPNSKNEKALGRKINSWESSRSGHSFLSNLHLRNGELVIHEKGFYYIYSQTQFKFREEIKENTKNDKQMVQYIYKYTSYPDPILLMKSARNSCWSKDAEYGLYSIYQGGIFELKENDRIFVSVTNERLLQMDHEASFFGAFLVGSGLPDVASLRQQVEALQGQVQHLQAAFSQYKKVELFPNGQSVGEKIFKTAGFVKPFTEAQLLCTQAGGQLASPRSAAENAALQQLVVAKNEAAFLSMTDSKTEGKFTYPTGESLVYSNWAPGEPNDDGGSEDCVEIFTNGKWNDRACGEKRLVVCEFGGSPSSSSSSAWSHPQFEK
notes: Used as HEK293 supernatant
B2: the binding result in experiment [2] is given as “no binding”.

B3: TRAILR2mut-A-CCSPD (ligand)
chain: QRVAAHITGTRGRSNTLSSPNSKNEKALGRKINSWESSRSGHSFLSNLHLRNGELVIHEKGFYYIYSQTQFKFREEIKENTKNDKQMVQYIYKYTSYPDPILLMKSARNSCWSKDAEYGLYSIYQGGIFELKENDRIFVSVTNERLLQMDHEASFFGAFLVGSSGSSGSSGSGLPDVASLRQQVEALQGQVQHLQAAFSQYKKVELFPNGPSSSSSSAWSHPQFEK
notes: Used as HEK293 supernatant
Turning to B3, the binding result in experiment [2] is “no binding”.

B4: TRAILR2mut-D-CCSPD (ligand)
chain: QRVAAHITGTRGRSNTLSSPNSKNEKALGRKINSWESSRSGHSFLSNLHLRNGELVIHEKGFYYIYSQTQFKFREEIKENTKNDKQMVQYIYKYTSYPDPILLMKSARNSCWSKDAEYGLYSIYQGGIFELKENDRIFVSVTNERLLQMDHEASFFGAFLVGSGLPDVASLRQQVEALQGQVQHLQAAFSQYKKVELFPNGPSSSSSSAWSHPQFEK
notes: Used as HEK293 supernatant
With B4, the binding result in experiment [2] was “no binding”.

B5: TRAILR2mut-ASPD (ligand)
chain: QRVAAHITGTRGRSNTLSSPNSKNEKALGRKINSWESSRSGHSFLSNLHLRNGELVIHEKGFYYIYSQTQFKFREEIKENTKNDKQMVQYIYKYTSYPDPILLMKSARNSCWSKDAEYGLYSIYQGGIFELKENDRIFVSVTNERLLQMDHEASFFGAFLVGSSGSSGSSGSGLPDVASLRQQVEALQGQVQHLQAAFSQYKKVELFPNGQSVGEKIFKTAGFVKPFTEAQLLCTQAGGQLASPRSAAENAALQQLVVAKNEAAFLSMTDSKTEGKFTYPTGESLVYSNWAPGEPNDDGGSEDCVEIFTNGKWNDRACGEKRLVVCEFGGSPSSSSSSAWSHPQFEK
notes: TRAIL-Receptor 2 selective mutein of the human TRAIL-RBD, A-linker, neck + CRD of human SP-D, linker element and Strep-tag II; Signal peptide 1-20 left out; Homotrimer by SEC; also called Sp-TRAILR2mut-ASPD
Turning to B5, the binding result in experiment [2] was “no binding”.
